Experimental data: PMC4678826, “Different genome stability proteins underpin primed and naïve adaptation in E. coli CRISPR-Cas immunity”

Experiments:
Cas1;Cas2 = target: T1, Cas1;Cas2 (Escherichia coli;Escherichia coli, UniProt Q46896;P45956 1-305;1-94, |); assay: EMSA; 5 mM EDTA; super-shifted complex Y; EMSA: 7 mM Tris-HCl pH 8.5, 9% glycerol, 50 mM NaCl, 100 ug/ml BSA, 5 mM EDTA, 10 min ambient temperature, 6 nM DNA, 5% acrylamide TBE gel at room temperature; settings: protein: recombinant;recombinant; tags: N-terminal His6;N-terminal His6; chain copies: 4;2; label: 5'-32P; fork; 25 nt leading arm duplex, 26 nt ssDNA flap
T1 sequence 1: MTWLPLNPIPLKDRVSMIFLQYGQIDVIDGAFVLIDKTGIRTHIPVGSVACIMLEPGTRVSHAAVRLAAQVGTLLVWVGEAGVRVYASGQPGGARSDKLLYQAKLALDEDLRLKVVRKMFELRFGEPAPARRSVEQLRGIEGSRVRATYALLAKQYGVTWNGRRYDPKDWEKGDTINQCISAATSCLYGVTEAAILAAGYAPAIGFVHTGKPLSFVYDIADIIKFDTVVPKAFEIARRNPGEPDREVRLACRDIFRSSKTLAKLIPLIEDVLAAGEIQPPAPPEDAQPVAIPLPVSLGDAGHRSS
T1 sequence 2: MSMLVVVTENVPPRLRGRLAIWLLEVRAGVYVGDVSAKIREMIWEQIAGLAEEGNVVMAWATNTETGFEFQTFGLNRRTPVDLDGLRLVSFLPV

Cas1 R84G = target: T2, Cas1 R84G (Escherichia coli, UniProt Q46896 1-305, R84G); assay: EMSA; 5 mM EDTA; EMSA: 7 mM Tris-HCl pH 8.5, 9% glycerol, 50 mM NaCl, 100 ug/ml BSA, 5 mM EDTA, 10 min ambient temperature, 6 nM DNA, 5% acrylamide TBE gel at room temperature; settings: protein: recombinant; tags: N-terminal His6; chain copies: 2; label: 5'-32P; fork; 25 nt leading arm duplex, 26 nt ssDNA flap
T2 sequence: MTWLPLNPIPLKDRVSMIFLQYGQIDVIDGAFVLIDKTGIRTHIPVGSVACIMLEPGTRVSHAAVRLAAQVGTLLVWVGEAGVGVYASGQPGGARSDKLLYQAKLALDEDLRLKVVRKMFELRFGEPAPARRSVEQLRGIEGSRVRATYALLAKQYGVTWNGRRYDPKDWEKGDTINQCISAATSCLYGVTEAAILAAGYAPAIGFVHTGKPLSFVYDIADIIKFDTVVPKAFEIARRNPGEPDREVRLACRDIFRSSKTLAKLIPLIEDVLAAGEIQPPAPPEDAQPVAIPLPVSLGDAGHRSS

Cas1 R138G = target: T3, Cas1 R138G (Escherichia coli, UniProt Q46896 1-305, R138G); assay: as above; settings: protein: recombinant; tags: N-terminal His6; chain copies: 2; label: 5'-32P; fork; 25 nt leading arm duplex, 26 nt ssDNA flap
T3 sequence: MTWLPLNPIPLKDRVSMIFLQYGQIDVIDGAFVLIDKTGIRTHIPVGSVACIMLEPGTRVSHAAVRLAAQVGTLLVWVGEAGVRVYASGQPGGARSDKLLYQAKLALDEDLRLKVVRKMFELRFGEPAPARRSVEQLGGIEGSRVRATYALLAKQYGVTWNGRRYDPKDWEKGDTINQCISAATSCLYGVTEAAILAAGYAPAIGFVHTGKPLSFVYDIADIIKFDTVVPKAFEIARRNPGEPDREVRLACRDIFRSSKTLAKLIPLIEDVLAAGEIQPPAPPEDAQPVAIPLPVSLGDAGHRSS

Cas1 R123G = target: T4, Cas1 R123G (Escherichia coli, UniProt Q46896 1-305, R123G); assay: as above; settings: protein: recombinant; tags: N-terminal His6; chain copies: 2; label: 5'-32P; fork; 25 nt leading arm duplex, 26 nt ssDNA flap
T4 sequence: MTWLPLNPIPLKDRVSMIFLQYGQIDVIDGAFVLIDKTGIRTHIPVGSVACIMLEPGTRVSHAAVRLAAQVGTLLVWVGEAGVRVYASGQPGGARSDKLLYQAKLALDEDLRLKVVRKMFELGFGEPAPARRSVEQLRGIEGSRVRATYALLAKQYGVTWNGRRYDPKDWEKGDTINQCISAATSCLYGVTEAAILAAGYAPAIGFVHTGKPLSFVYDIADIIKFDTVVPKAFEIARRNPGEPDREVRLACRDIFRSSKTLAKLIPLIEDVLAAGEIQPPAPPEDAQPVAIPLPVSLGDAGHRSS

B1: fork-1 (mixed)
DNA 1: CAACGTCATAGACGATTACATTGCTACATGGAGCTGTCTAGAGGATCCGA
DNA 2: TCGGATCCTCTAGACAGCTCCATGATCACTGGCACTGGTAGAATTCGGC
DNA 3: GCCGAATTCTACCAGTGCCAGTGAT
binding result (Cas1;Cas2): binds | binding result (Cas1 R84G): no binding | binding result (Cas1 R138G): no binding | binding result (Cas1 R123G): no binding
